These results are taken from paper doi:10.1101/2023.07.07.548106, “CXCL17 binds efficaciously to glycosaminoglycans with the potential to modulate chemokine signalling” (bioRxiv, 2023).

This series concerns the molecule itself. Description: reducing SDS-PAGE and Western blot; serial dilutions of recombinant CXCL17 (24-119), 1.25-10 uM, on reducing 12% Bis-Tris SDS-PAGE, blotted with anti-CXCL17; bands of 14 kDa and 28 kDa read as monomer and dimer; 28 kDa species at 5 uM and above. A general note: In western blotting, separated proteins are transferred to a membrane and probed.

B1: recombinant human CXCL17 (24-119) (natural protein, UniProt Q6UXB2 24-119, looked up)
chain: LNPGVARGHRDRGQASRRWLQEGGQECECKDWFLRAPRRKFMTVSGLPKKQCPCDHFKGNVKKTRHQRHHRKPNKHSRACQQFLKQCQLRSFALPL
notes: human CXCL17, residues Leu24-Leu119 of the 119-residue precursor (Q6UXB2), without the predicted signal peptide; the commercially available form; also called Leu24-Leu119 form of CXCL17; source: bought: R&D Systems; produced in E. coli
Turning to B1, the “ratio of monomer:dimer” value was 3 monomer:dimer and the stoichiometry N (in general, the number of molecules, sites or subunits per partner or assembly) was 2.
